Data published in US7906310B2, “Proteases” (Novozymes A/S, priority 2003, dated 2011).

B1: Protease 18: protease from Nocardiopsis dassonvillei subsp. dassonvillei DSM 43235, amino acids 1-188 of SEQ ID NO: 12 (protein)
chain: APAPVPQTPVADDSAASMTEALKRDLDLTSAEAEELLSAQEAAIETDAEATEAAGEAYGGSLFDTETLELTVLVTDASAVEAVEATGAQATVVSHGTEGLTEVVEDLNGAEVPESVLGWYPDVESDTVVVEVLEGSDADVAALLADAGVDSSSVRVEEAEEAPQVYADIIGGLAYYMGGRCSVGFAAT
modifications: Nocardiopsis dassonvillei subspecies dassonvillei
B2: Protease 35: protease from Nocardiopsis prasina DSM 15649, amino acids 1-188 of SEQ ID NO: 8 (protein, listed as Nocardiopsis prasina)
chain: ATGPLPQSPTPEADAVSMQEALQRDLGLTPLEADELLAAQDTAFEVDEAAAEAAGDAYGGSVFDTETLELTVLVTDSAAVEAVEATGAGTELVSYGITGLDEIVEELNAADAVPGVVGWYPDVAGDTVVLEVLEGSGADVGGLLADAGVDASAVEVTTTEQPELYADIIGGLAYTMGGRCSVGFAATN
B3: Protease 11: protease from Nocardiopsis prasina DSM 15648, amino acids 1-188 of SEQ ID NO: 6 (protein, listed as Nocardiopsis prasina)
chain: ATGPLPQSPTPEADAVSMQEALQRDLGLTPLEADELLAAQDTAFEVDEAAAAAAGDAYGGSVFDTETLELTVLVTDAASVEAVEATGAGTELVSYGIEGLDEIIQDLNAADAVPGVVGWYPDVAGDTVVLEVLEGSGADVSGLLADAGVDASAVEVTSSAQPELYADIIGGLAYTMGGRCSVGFAATN
B4: Protease 08: protease from Nocardiopsis alba DSM 15647, amino acids 1-188 of SEQ ID NO: 10 (protein, listed as Nocardiopsis alba)
chain: ATGPLPQSPTPDEAEATTMVEALQRDLGLSPSQADELLEAQAESFEIDEAATAAAADSYGGSIFDTDSLTLTVLVTDASAVEAVEAAGAEAKVVSHGMEGLEEIVADLNAADAQPGVVGWYPDIHSDTVVLEVLEGSGADVDSLLADAGVDTADVKVESTTEQPELYADIIGGLAYTMGGRCSVGFAA
B5: Metarhizium protease: known protease derived from Metarhizium anisopliae, amino acids 1-188 of SEQ ID NO: 4 (protein, listed as Metarhizium anisopliae)
chain: MELTKFLALLAVILPVAYGAPTQAASLHPQILEAMKRDLGLNAEQATVRVAREIHATDVIEQLRSSVAFAGAWIDADVLYIGITDQALADEVTAAGATPIVMTNSLSKLEKAKEDLDKIFIGRANTLETSSDTSSGIASYFVDVAANKLVIEALADSHGHAEQLAAQVGLTSEFEVRTVETMPTTMAT
B6: Brachysporiella protease: protease from Brachysporiella gayana CGMCC 0865, amino acids 1-186 of SEQ ID NO: 14 (protein, listed as Brachysporiella gayana)
chain: MELTSLIAALAVILPIAYGVPMDATTNLSPKVLAAMKRDLGLDAREATARVTFERRAGDVIEELRSSLGDSFAGAWVTDGKVINIGVTDQALVSKVKEAGAEPMVMKNSLGKLQEAKKKLDQIIKEKPKTLSTSGKPGIATYYVDIETNKLIITALSTSITQAEDLAKEVGLSESEFEVRKTEKMP
B7: Protease 10: known protease derived from Nocardiopsis sp. NRRL 18262, amino acids 1-188 of SEQ ID NO: 2 (protein)
chain: ADIIGGLAYTMGGRCSVGFAATNAAGQPGFVTAGHCGRVGTQVTIGNGRGVFEQSVFPGNDAAFVRGTSNFTLTNLVSRYNTGGYATVAGHNQAPIGSSVCRSGSTTGWHCGTIQARGQSVSYPEGTVTNMTRTTVCAEPGDSGGSYISGTQAQGVTSGGSGNCRTGGTTFYQEVTPMVNSWGVRLRT

Tests used:
[1] = Stability assay: residual activity after incubation with 1 mM inhibitor, measured by pNA assay; assay type: physicochemical; parameters: key to Residual Enzyme Activity: fraction of activity at 0 h incubation (0.80 = 80%); settings: for Stability in the presence of 1 mM Cu2+ / Residual Enzyme Activity: 25° C.; for Residual Enzyme Activity: 1 mM Cu2+, pH 7, 0.1% K-sorbate, relative to 0 hours; for Feature i): residual activity at least 0.80 after 164 hours with 1 mM Cu2+: pH 7, 25° C., 0.1% K-Sorbate
Method: Feature i) is determined as residual (=rest, or remaining) enzyme activity after having incubated the enzyme for 164 hours, at pH 7 and 25° C., in assay buffer supplemented with 0.1% K-Sorbate (for preservation purposes), and in the presence of 1 mM Cu^2+. The residual activity is measured relative to the activity after 0 hours of incubation. For the protease of the invention, the residual activity is at least 0.80 (=80%).
(§1) Protease activity is measured using the substrate Suc-AAPF-pNA, in assay buffer at pH 7.0 and 25° C. For more details, please refer to the pNA assay described in Example 4, which also describes in detail the determination according to i) and ii).
(§2) 20 ul (microliters) protease (diluted in 0.01% Triton X-100) was placed in a well of a micro titer plate. The assay was started by adding 200 ul pNA substrate (50 mg dissolved in 1.0 ml DMSO and further diluted 100× with assay buffer). The increase in OD405 was monitored as a measure of the protease activity.
The protease was diluted to approx. 1 mg/ml (see below) in assay buffer with 0.1% (w/v) K-sorbate (potassium salt of sorbic acid) and 1 mM inhibitor. The mixture was incubated at 25° C.). At intervals, a sample was withdrawn from the incubation (after thorough mixing) and frozen. After dilution in assay buffer, residual activity was measured using the pNA assay. For the 1 mM inhibitor additions, the incubation was diluted in assay buffer with 5 mM EDTA in order to see a pure stability effect.
Protease concentrations were estimated from the theoretical molar extinction coefficients, E280 (1 M), which can be calculated from the amino acid composition using the formula: E280 (1 M)=5690*NTrp+1280*NTyr+120*NCys, where NTrp, NTyr, and NCys are the number of Trp, Tyr, and Cys amino acid residues in the protease (Gill, S. C., von Hippel, P. H., Analytical Biochemistry 182: 319-326 (1989)) and the molecular weight, Mw, of the protease calculated from the amino acid sequence. From an A280 measurement of a pure protease sample (more than 95% pure according to Example 2), the protease concentration was calculated as: Conc (mg/ml)=(A280*MW)/E280 (1 M)).
The stability of the various proteases in the presence of the various inhibitors in a concentration of 1 mM was tested as described above. The only inhibitor that had some effect on the stability of some of the proteases was Cu^2+. However, the effect of this inhibitor was not the same on all the proteases: See the results in Table 2 below showing that Protease 18 and the Brachysporiella proteases are indeed stable in the presence of 1 mM Cu^2+, while the other proteases are not.

[2] = pNA assay: protease activity with 1 mM Cu2+ relative to control without Cu2+; assay type: biochemical; settings: enzyme 1 mg/l, Suc-AAPF-pNA, pH 7, 25° C.; for Enzyme Activity, +1 mM Cu^2+: 1 mM Cu2+; for Enzyme Activity, Control (no Cu^2+): no Cu2+; for Relative Activity: activity with 1 mM Cu2+ relative to control without Cu2+
Method: as §1
Feature ii) is determined as the enzyme activity in the presence of 1 mM Cu^2+, relative to the activity of the same enzyme under the same conditions, except for the presence of Cu^2+. For the protease of the invention, this relative activity is at least 0.66 (=66%). For the purposes of feature ii), enzyme (protease) activity is measured as described above.
pNA substrate: Suc-AAPF-pNA (Bachem L-1400) or Boc-VLGR-pNA (Bachem L-1205). Temperature: 25° C.
as §2
First, the effect of various Cu^2+ concentrations was tested with an enzyme dosage of 1 mg/l. At least in the range of 0 to 1 mM Cu^2+ there seemed to be a linear relationship between inhibition and concentration of Cu^2+, the inhibition manifesting itself as a decrease in the enzyme activity with increasing concentrations of Cu^2+ (the enzyme activity being measured as average OD405 increase/time from the linear part of dose/response curves).

| Molecule | Stability in the presence of 1 mM Cu2+ [1] | Residual Enzyme Activity ([1]; incubation time 0 hours) | Residual Enzyme Activity ([1]; incubation time 3.1 hours) | Residual Enzyme Activity ([1]; incubation time 18.6 hours) | Residual Enzyme Activity ([1]; incubation time 44.0 hours) | Residual Enzyme Activity ([1]; incubation time 116.0 hours) | Residual Enzyme Activity ([1]; incubation time 164.0 hours) | Residual Enzyme Activity ([1]; incubation time 188.6 hours) | Feature i): residual activity at least 0.80 after 164 hours with 1 mM Cu2+ [1] | Enzyme Activity, +1 mM Cu^2+ [2] | Enzyme Activity, Control (no Cu^2+) [2] | Relative Activity [2] |
| --- | --- | --- | --- | --- | --- | --- | --- | --- | --- | --- | --- | --- |
| B1 | stable | 1.000 | 0.985 | 1.008 | 1.003 | 0.982 | 1.030 | 0.993 | fulfil feature i) | 158.0 mOD405/min | 193.1 mOD405/min |  |
| B2 |  | 1.000 | 0.960 | 0.918 | 0.852 | 0.807 | 0.745 | 0.733 |  | 75.0 mOD405/min | 109.2 mOD405/min | 0.687 |
| B3 |  | 1.000 | 0.930 | 1.032 | 0.930 | 0.737 | 0.616 | 0.581 |  | 92.3 mOD405/min | 133.6 mOD405/min | 0.691 |
| B4 |  | 1.000 | 0.936 | 0.867 | 0.842 | 0.767 | 0.721 | 0.703 |  | 174.5 mOD405/min | 216.0 mOD405/min |  |
| B5 |  | 1.000 | 0.979 | 0.939 | 0.891 | 0.760 | 0.651 | 0.627 |  | 72.4 mOD405/min | 118.2 mOD405/min | 0.612 |
| B6 | stable | 1.000 | 1.022 | 1.073 | 1.057 | 1.029 | 1.053 | 0.984 | fulfil feature i) | 50.5 mOD405/min | 72.6 mOD405/min | 0.695 |
| B7 |  | 1.000 | 0.952 | 0.868 | 0.874 | 0.837 | 0.752 | 0.723 |  | 80.3 mOD405/min | 122.2 mOD405/min | 0.657 |
